The values that follow come from PMC10411877.

Series [1] has as its target T1, GST-MAC3A (Arabidopsis thaliana (Col), UniProt Q94BR4 1-523).
T1 sequence: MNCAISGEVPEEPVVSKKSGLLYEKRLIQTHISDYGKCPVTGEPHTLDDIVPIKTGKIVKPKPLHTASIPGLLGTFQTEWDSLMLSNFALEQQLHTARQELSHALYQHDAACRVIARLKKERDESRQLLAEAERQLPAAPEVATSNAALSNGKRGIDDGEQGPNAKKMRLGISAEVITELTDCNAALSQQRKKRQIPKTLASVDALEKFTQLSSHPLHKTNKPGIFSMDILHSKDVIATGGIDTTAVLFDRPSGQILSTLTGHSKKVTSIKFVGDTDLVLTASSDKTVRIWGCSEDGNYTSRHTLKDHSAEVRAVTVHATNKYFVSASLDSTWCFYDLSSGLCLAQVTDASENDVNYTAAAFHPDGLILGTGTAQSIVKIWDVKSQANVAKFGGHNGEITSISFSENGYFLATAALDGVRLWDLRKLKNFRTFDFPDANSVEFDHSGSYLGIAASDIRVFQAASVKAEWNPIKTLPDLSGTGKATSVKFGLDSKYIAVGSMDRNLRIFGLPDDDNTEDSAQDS
Nature of the series: competition FLISA.

Series [2] has as its target T1, GST-MAC3A. The experiment in a line: competition FLISA. This is another data set of the same source.
The target of series [3] is T1, GST-MAC3A. Nature of the series: FLISA.

B1: cold pIAA19 (dsDNA)
DNA 1: ATCTGTTCCCTTAACCACCTTGT
DNA 2: ACAAGGTGGTTAAGGGAACAGAT
Take B1: in the series with GST-MAC3A [1], the binding result is recorded as “binds”.

B2: cold pYUC8 (dsDNA)
DNA 1: CCTCTCCACGTGGCTTCCATTC
DNA 2: GAATGGAAGCCACGTGGAGAGG
As to B2, the binding result with GST-MAC3A [2] was “binds”.

B3: pIAA19biotin (dsDNA)
DNA 1: AATGACTCCACGTGTCGATATTG
DNA 2: CAATATCGACACGTGGAGTCATT
With B3, the binding result in the series with GST-MAC3A [3] is given as “binds”.

B4: pYUC8biotin (dsDNA)
DNA 1: CCTCTCCACGTGGCTTCCATTC
DNA 2: GAATGGAAGCCACGTGGAGAGG
For the molecule B4, the binding result with GST-MAC3A [3] is “binds”.
